Test results: publication PMC8759039, “EjRAV1/2 Delay Flowering Through Transcriptional Repression of EjFTs and EjSOC1s in Loquat”

Key:
EjRAV1 [1] = molecular target: T1, EjRAV1 (Eriobotrya japonica, UniProt A0A482LZ61 1-403); experiment: EMSA; Beyotime EMSA/Gel Shift kit, chemiluminescent biotin detection; buffer, salt, pH and temperature not stated; details: protein: recombinant; tags: 6xHis (pET28a); label: biotin (ends); blunt
EjRAV2 = EjRAV2 (Eriobotrya japonica, UniProt A0A482LTM5 1-406); experiment: as above; details: protein: recombinant; tags: 6xHis (pET28a); label: biotin (ends); blunt
Chain of EjRAV2 (A0A482LTM5 entry or part of it): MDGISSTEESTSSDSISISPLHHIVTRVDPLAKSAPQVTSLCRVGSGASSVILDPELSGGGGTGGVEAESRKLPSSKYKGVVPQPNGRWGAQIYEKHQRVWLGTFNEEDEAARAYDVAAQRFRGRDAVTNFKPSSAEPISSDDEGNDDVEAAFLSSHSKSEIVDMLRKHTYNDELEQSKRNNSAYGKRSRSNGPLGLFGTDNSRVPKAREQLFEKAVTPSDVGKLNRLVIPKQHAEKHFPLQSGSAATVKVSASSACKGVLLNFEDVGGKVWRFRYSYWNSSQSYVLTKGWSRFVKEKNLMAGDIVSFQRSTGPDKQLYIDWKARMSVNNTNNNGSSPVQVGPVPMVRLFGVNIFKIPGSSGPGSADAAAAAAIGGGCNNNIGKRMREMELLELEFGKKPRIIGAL

EjRAV1 [2] = molecular target: T1, EjRAV1; experiment: competition; excess unlabeled vs biotin P1; Beyotime EMSA/Gel Shift kit, chemiluminescent biotin detection; buffer, salt, pH and temperature not stated; details: protein: recombinant; tags: 6xHis (pET28a); blunt

T1 sequence (A0A482LZ61 entry or part of it): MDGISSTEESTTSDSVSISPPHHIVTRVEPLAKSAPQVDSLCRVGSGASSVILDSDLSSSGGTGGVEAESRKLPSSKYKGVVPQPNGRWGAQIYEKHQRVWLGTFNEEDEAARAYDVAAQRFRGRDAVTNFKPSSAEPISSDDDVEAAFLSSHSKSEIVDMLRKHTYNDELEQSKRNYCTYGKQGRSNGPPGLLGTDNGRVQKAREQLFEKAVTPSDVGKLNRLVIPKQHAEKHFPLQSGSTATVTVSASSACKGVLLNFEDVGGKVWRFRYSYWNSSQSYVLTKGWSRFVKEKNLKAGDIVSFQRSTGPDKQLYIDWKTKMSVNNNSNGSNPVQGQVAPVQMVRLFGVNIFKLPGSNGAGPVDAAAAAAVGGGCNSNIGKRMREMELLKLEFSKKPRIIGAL

Binder | binding result (EjRAV1 [1]) | binding result (EjRAV2) | binding result (EjRAV1 [2])
EjFT1-P1 (dsDNA) DNA 1: TGGCAATATGACATGCAATGCAACAGAATATAAATAGTTGATTTTG DNA 2: CAAAATCAACTATTTATATTCTGTTGCATTGCATGTCATATTGCCA | binds | no binding | –
EjFT1-P1 unlabeled (dsDNA) DNA 1: TGGCAATATGACATGCAATGCAACAGAATATAAATAGTTGATTTTG DNA 2: CAAAATCAACTATTTATATTCTGTTGCATTGCATGTCATATTGCCA | – | – | binds
